These substances were tested against AM receptor expressed in a cultured cell line (HEK293 cell line) (assay: cell-based or functional assay).

With “amidated compound of Example 1: (IgG1 Fc Region)+(Linker S)+(AM-Gly), amidated (Fc fusion)” as the substance, how does the Relative activity (%) (vs. hAM), intracellular cAMP, compound at 10^-6 M read?
Its Relative activity (%) (vs. hAM), intracellular cAMP, compound at 10^-6 M is 27%.

Which Relative activity (%) (vs. hAM), intracellular cAMP, compound at 10^-6 M does the source give for “amidated compound of Example 2: (IgG1 Fc Region)+(Linker K)+(AM-Gly), amidated (Fc fusion)” here?
The Relative activity (%) (vs. hAM), intracellular cAMP, compound at 10^-6 M was 11%.

How did the Relative activity (%) (vs. hAM), intracellular cAMP, compound at 10^-6 M turn out when “amidated compound of Example 3: (IgG4 Fc Region)+(Linker S)+(AM-Gly), amidated (Fc fusion)” was run?
The Relative activity (%) (vs. hAM), intracellular cAMP, compound at 10^-6 M was 27%.

For “amidated compound of Example 4: (IgG4 Fc Region)+(Linker K)+(AM-Gly), amidated (Fc fusion)”, which Relative activity (%) (vs. hAM), intracellular cAMP, compound at 10^-6 M is on record?
The Relative activity (%) (vs. hAM), intracellular cAMP, compound at 10^-6 M was 49%.

“amidated compound of Example 5: (IgG1 Fc Region)+(Linker S)+(AM (6-52)-Gly), amidated (Fc fusion)” was tested. Which Relative activity (%) (vs. hAM), intracellular cAMP, compound at 10^-6 M did it give?
The Relative activity (%) (vs. hAM), intracellular cAMP, compound at 10^-6 M was 88%.

With “amidated compound of Example 6: (IgG1 Fc Region)+(Linker K)+(AM (6-52)-Gly), amidated (Fc fusion)” as the substance, how does the Relative activity (%) (vs. hAM), intracellular cAMP, compound at 10^-6 M read?
Its Relative activity (%) (vs. hAM), intracellular cAMP, compound at 10^-6 M is 70%.

Which Relative activity (%) (vs. hAM), intracellular cAMP, compound at 10^-6 M does the source give for “amidated compound of Example 7: (IgG1 Fc Region)+(Linker S)+(AM (11-52)-Gly), amidated (Fc fusion)” here?
Its Relative activity (%) (vs. hAM), intracellular cAMP, compound at 10^-6 M is 68%.

With “amidated compound of Example 8: (IgG1 Fc Region)+(Linker K)+(AM (11-52)-Gly), amidated (Fc fusion)” as the substance, how does the Relative activity (%) (vs. hAM), intracellular cAMP, compound at 10^-6 M read?
The Relative activity (%) (vs. hAM), intracellular cAMP, compound at 10^-6 M was 48%.

Which Relative activity (%) (vs. hAM), intracellular cAMP, compound at 10^-6 M does the source give for “amidated compound of Example 9: (IgG4 Fc Region)+(Linker S)+(AM (6-52)-Gly), amidated (Fc fusion)” here?
The Relative activity (%) (vs. hAM), intracellular cAMP, compound at 10^-6 M was 54%.

“amidated compound of Example 10: (IgG4 Fc Region)+(Linker K)+(AM (6-52)-Gly), amidated (Fc fusion)” was tested. Which Relative activity (%) (vs. hAM), intracellular cAMP, compound at 10^-6 M did it give?
Its Relative activity (%) (vs. hAM), intracellular cAMP, compound at 10^-6 M is 39%.

“amidated compound of Example 11: (IgG4 Fc Region)+(Linker S)+(AM (11-52)-Gly), amidated (Fc fusion)” was tested. Which Relative activity (%) (vs. hAM), intracellular cAMP, compound at 10^-6 M did it give?
Its Relative activity (%) (vs. hAM), intracellular cAMP, compound at 10^-6 M is 36%.

For “amidated compound of Example 12: (IgG4 Fc Region)+(Linker K)+(AM (11-52)-Gly), amidated (Fc fusion)”, which Relative activity (%) (vs. hAM), intracellular cAMP, compound at 10^-6 M is on record?
The Relative activity (%) (vs. hAM), intracellular cAMP, compound at 10^-6 M was 48%.

— patent publication US20210115103A1
